Legend:
[1] = substrate: OC[C@H]1O[C@H](OC[C@H]2O[C@H](O[C@]3(CO)O[C@H](CO)[C@@H](O)[C@@H]3O)[C@H](O)[C@@H](O)[C@@H]2O)[C@H](O)[C@@H](O)[C@H]1O; test: purified protein; assay type: biochemical, Fusarium sambucinum; details: O2 at air saturation, 20 mM potassium phosphate pH 7.0, 30 °C, Cu-activated enzyme
[2] = substrate: CO[C@@H]1O[C@H](CO)[C@H](O)[C@H](O)[C@H]1O; test: purified protein; assay type: biochemical, Fusarium sambucinum; details: O2 at air saturation, 20 mM potassium phosphate pH 7.0, 30 °C, Cu-activated enzyme

B1: galactose oxidase (GalOx) of Fusarium sambucinum (Fusarium sambucinum) (protein)
chain: ASAPIGSAISRNNWAVTCDSAQPGNECNKAIDGNRDTFWHTFYGANGDPKPPHTYNIDMKTTQNVNGLSMLPRQDGSQNGWIGRHEVYLSSDGKTWGSPVATGSWFADSTTKYSNFETRPARYVRLVALAEANGQPWTSIAEINVYQASSYTAPQPGLGRWGPTIDLPIVPAAAAIEPTSGRVLMWSSYRNDAFGGSPGGVTLTSSWDPSSGIVSDRTVTVTKHDMFCPGISMDGNGQIVVTGGNDAKKTSLYDSPSDSWVPGPDMQVARGYQSSATMSDGRVFTIGGSWSGGIFEKNGEVYSPSSKTWTSLPNAKVNPMLTADKQGLYRSDNHAWLFGWKKGSVFQAGPSTAMNWYYTSGSGDVKSAGKRQSNRGVAPDAMCGNAVMYDAVQGKILTFGGSPDYQDSDATTNAHIITLGEPGSTPKTVFASNGLYFARTFHTSVVLPDGSTFITGGQRRGIPFEDSTPVLTPEIYVPEQDTFYKQNPNSIVRVYHSISLLLPDGRVFNGGGGLCGDCTTNHFDAQIFTPNYLYDSNGNLATRPKITRTSTQSVKVGGRVTISTDYSIRKASLIRYGTATHTVNTDQRRIPLTLMNNGGNSYSFQVPSDTGIALPGYWMLFVINSAGVPSVASTIRVTQ
notes: C-terminal His6 tag kept (pET21a NdeI/NotI); E. coli BL21(DE3); IMAC
[1]
  Km: 20 ± 2.3 mM
  Vmax: 43 µmol/min/mg
  kcat: 49 s⁻¹
  kcat/Km: 2500 M⁻¹ s⁻¹
[2]
  Km: 39 ± 1.7 mM
  Vmax: 67 µmol/min/mg
  kcat: 77 s⁻¹
  kcat/Km: 2000 M⁻¹ s⁻¹

Source: paper PMC4370742, “Expression, purification, and characterization of galactose oxidase of Fusarium sambucinum in E. coli” (Protein Expression and Purification, 2015)
